T1: Angiopoietin 1 (UniProt Q15389)
T1 chain: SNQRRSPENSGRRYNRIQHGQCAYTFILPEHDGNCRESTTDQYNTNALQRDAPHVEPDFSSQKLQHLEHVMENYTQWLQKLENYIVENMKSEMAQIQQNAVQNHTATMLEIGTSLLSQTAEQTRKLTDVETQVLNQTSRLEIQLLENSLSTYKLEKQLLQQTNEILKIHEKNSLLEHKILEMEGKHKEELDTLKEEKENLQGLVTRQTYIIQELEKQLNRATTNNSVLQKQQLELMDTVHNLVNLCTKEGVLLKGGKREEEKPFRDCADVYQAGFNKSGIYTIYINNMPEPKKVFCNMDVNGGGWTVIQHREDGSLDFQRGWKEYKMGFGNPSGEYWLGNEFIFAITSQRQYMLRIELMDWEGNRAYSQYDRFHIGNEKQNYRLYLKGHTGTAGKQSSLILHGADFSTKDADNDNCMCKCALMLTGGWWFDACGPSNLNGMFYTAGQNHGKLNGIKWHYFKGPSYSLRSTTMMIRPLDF

T2: Angiopoietin 2 (UniProt O15123)
T2 chain: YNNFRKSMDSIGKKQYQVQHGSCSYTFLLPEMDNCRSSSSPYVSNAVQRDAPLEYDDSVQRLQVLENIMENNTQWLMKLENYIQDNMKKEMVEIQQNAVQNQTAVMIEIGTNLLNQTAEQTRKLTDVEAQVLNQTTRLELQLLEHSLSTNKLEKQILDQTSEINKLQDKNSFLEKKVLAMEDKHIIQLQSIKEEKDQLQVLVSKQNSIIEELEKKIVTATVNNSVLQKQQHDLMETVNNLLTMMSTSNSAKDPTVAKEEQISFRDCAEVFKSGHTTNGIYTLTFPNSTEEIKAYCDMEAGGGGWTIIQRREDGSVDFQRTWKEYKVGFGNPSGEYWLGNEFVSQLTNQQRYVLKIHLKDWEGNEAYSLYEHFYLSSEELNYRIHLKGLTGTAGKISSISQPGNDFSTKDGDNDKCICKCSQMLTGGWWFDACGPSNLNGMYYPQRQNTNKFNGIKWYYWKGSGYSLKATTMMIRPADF

B1: HC22/LC22 (antibody, V domains shown)
VH: EVQLVQSGAEVKKPGASVKVSCKASGGTFSSYAISWVRQAPGQGLEWMGGIIPIFGTANYAQKFQGRVTITADESTSTAYMELSSLRSEDTAVYYCARGGSGRFDYWGQGTLVTVSS
VL: QSALTQPASVSGSPGESIIISCTGTSSDVGAYNYVSWYQQHLGKAPKLMIYDVSQRPSGVSDRFSGSKSGNTASLTISGLQAEDEADYYCSSFTGDSVIFGGGTKLTVL
B2: HC2/LC2 (antibody, V domains shown)
VH: EVQLLESGGGLVQPGGSLRLSCAASGFTFSNYAMSWVRQAPGKGLEWVSVISPGSGNTYYADSVKGRFTISRDNSKNTLYLQMNSLRAEDTAVYYCAKGALKCRHRSCSSYNAMDVWGQGTLVTVSS
VL: QSVLTQPPSASGTPGQRVTISCTGSSSNIGNNDVSWYQQLPGTAPKLLIYDNNHRPSGVPDRFSGSKSGTSASLAISGLRSEDEADYYCGTWDASLNGYVFGGGTKLTVL
B3: HC12/LC12 (antibody, V domains shown)
VH: EVQLLESGGGLVQPGGSLRLSCAASGFTFSNYAMSWVRQAPGKGLEWVSVISPGSGNTYYADSVKGRFTISRDNSKNTLYLQMNSLRAEDTAVYYCAKGALKCRHRSCSSYNAMDVWGQGTLVTVSS
VL: QSVLTQPPSASGTPGQRVTISCTGSSSNIGNNDVSWYQQLPGTAPKLLIYDNNHRPSGVPDRFSGSKSGTSASLAISGLRSEDEADYYCGTWDASLNGYVFGGGTKLTVL
B4: HC8/LC8 (antibody, V domains shown)
VH: EVQLLESGGGLVQPGGSLRLSCAASGFTFSNYSMSWVRQAPGKGLEWVSAISPGNGNKYYADSVKGRFTISRDNSKNTLYLQMNSLRAEDTAVYYCAKGLSSLLLVGFDYWGQGTLVTVSS
VL: QSVLTQPPSASGTPGQRVTISCSGSSSNIGNNDVSWYQQLPGTAPKLLIYSDSQRPSGVPDRFSGSKSGTSASLAISGLRSEDEADYYCGSWDASLNGYVFGGGTKLTVL
B5: HC4/LC4 (antibody, V domains shown)
VH: EVQLLESGGGLVQPGGSLRLSCAASGFTFSNYAMSWVRQAPGKGLEWVSAISHGGSSKYYADSVKGRFTISRDNSKNTLYLQMNSLRAEDTAVYYCARDRTASLLDGFDYWGQGTLVTVSS
VL: QSVLTQPPSASGTPGQRVTISCSGSSSNIGNNYVNWYQQLPGTAPKLLIYADSNRPSGVPDRFSGSKSGTSASLAISGLRSEDEADYYCGTWDASLSGYVFGGGTKLTVL
B6: HC18/LC18 (antibody, V domains shown)
VH: EVQLLESGGGLVQPGGSLRLSCAASGFTFSDYDMSWVRQAPGKGLEWVSWISPDDGSIYYADSVKGRFTISRDNSKNTLYLQMNSLRAEDTAVYYCARSVLPFDYWGQGTLVTVSS
VL: QSVLTQPPSASGTPGQRVTISCSGSSSNIGSNAVYWYQQLPGTAPKLLIYDDSKRPSGVPDRFSGSKSGTSASLAISGFRSEDEADYYCGSWDASLNAYVFGGGTKLTVL
B7: HC10/LC10 (antibody, V domains shown)
VH: EVQLVESGGGLVQPGGSLRLSCAASGFTFSNYAMSWVRQAPGKGLEWVSWIYPDNGNTYYADSVKGRFTISRDNSKNTLYLQMNSLRAEDTAVYYCAKYSLDKYTPWPYSYYGMDVWGQGTLVTVSS
VL: QSVLTQPPSASGTPGQRVTISCTGSSSNIGNNAVTWYQQLPGTAPKLLIYDDSHRPSGAPDRFSGSKSGTSASLAISGLRSEDEADYYCGTWDASLSAYVFGGGTKLTVL
B8: HC14/LC14 (antibody, V domains shown)
VH: EVQLLESGGGLVQPGGSLGLSCAASGFTLSNYDMSWVRQAPGKGLEWVSWISPDSSSTYYADSVKGRFTISRDNSKNTLYLQMNSLRAEDTAVYYCARSVMPFDYWGQGTLVTVSS
VL: QSVLTQPPSASGTPGQRVTISCSGSSSNIGSNAVYWYQQLPGTAPKLLIYDDSKRPSGVPDRFSGSKSGTSASLAIGGLRSEDEADYYCGAWDDSLSAYVFGGGTKLTVL
B9: HC16/LC16 (antibody, V domains shown)
VH: EVQLLESGGGLVQPGGSLRLSCAASGFTFSDYYMSWVRQAPGKGLEWVSSISYDDGSRKYYADSGKRSVTISRDNSKNTLYLQMNSLRAEDTAVYYCARDRSTLRLDSFDYWGQGTLVTVSS
VL: QSVLTQPPSASGTPGRRVTISCSGSSPNIGNNTVNWYQQLPGTAPKLLIYSDSHRPSGVPDRFSGSKSGTSASLAISGLRSEDEADYYCGAWDYSLNAYVFGGGTKLTVL

Key:
Angiopoietin 1 = molecular target: T1, Angiopoietin 1; assay: competition, blocking Tie-2
Angiopoietin 2 = molecular target: T2, Angiopoietin 2; assay: competition, blocking Tie-2

Row | Binder | IC50 (Angiopoietin 1) [pM] | IC50 (Angiopoietin 2) [pM]
1 | B1 | 240 | 30
2 | B2 | 230 | 60
3 | B3 | 380 | 40
4 | B4 | 210 | 200
5 | B5 | 260 | 1350
6 | B6 | 240 | 2850
7 | B7 | 190 | 1220
8 | B8 | 740 | 80
9 | B9 | 260 | 320

From patent US9512220 (dated 2016)
